Experiment [1] has as its target FVIIa-sTF (human) (UniProt P08709). Briefly: cell-based or functional assay.
Experiment [2] concerns the target FVIIa (human) (UniProt P08709). Briefly: cell-based or functional assay.
Experiment [3] deals with FVIIa (human) (UniProt P08709).
Experiment [4] deals with FVIIa-sTF (human) (UniProt P08709). The experiment is described as follows: non-competitive inhibition kinetics of FVIIa-sTF amidolytic activity on S-2288.
Sequence of FVIIa-sTF (human) (P08709 61-212 limits assumed, chain 1 of 3): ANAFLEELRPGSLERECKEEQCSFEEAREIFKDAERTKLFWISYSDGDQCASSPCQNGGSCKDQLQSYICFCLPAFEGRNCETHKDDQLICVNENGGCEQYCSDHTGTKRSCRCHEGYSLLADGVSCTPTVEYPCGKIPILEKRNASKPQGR
Sequence of FVIIa-sTF (human) (P13726 33-251 limits assumed, chain 2 of 3, further chain): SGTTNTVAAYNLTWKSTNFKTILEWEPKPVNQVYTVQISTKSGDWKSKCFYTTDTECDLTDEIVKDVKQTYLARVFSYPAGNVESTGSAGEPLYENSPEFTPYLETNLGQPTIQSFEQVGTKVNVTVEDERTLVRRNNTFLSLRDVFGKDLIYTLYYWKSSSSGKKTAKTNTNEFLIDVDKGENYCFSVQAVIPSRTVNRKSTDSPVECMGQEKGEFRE
Sequence of FVIIa-sTF (human) (P08709 213-466 limits assumed, chain 3 of 3): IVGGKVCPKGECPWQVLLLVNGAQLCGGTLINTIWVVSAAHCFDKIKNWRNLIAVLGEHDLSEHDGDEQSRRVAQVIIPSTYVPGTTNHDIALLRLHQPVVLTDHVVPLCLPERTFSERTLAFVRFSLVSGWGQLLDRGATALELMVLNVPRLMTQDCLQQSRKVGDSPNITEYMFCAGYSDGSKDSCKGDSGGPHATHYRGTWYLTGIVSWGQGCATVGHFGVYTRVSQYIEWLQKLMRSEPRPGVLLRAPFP

Sequence of FVIIa (human) (P08709 61-212 limits assumed, chain 1 of 2): as the sequence (P08709 61-212 limits assumed, chain 1 of 3) above
Sequence of FVIIa (human) (P08709 213-466 limits assumed, chain 2 of 2): as the sequence (P08709 213-466 limits assumed, chain 3 of 3) above

B1: hemextin AB complex (protein)
chain 1: LKCKNKLVPFLSKTCPEGKNLCYKMTMLKMPKIPIKRGCTDACPKSSLLVKVVCCNKDKCN
chain 2: LKCKNKVVPFLKCKNKVVPFLCYKMTLKKVPKIPIKRGCTDACPKSSLLVNVMCCKTDKCN
Regarding B1, in the experiment with FVIIa-sTF (human) [1], the IC50, inhibition of FVIIa amidolytic activity in the presence of sTF came to 100 nM. Also, in the experiment with FVIIa (human) [2], the IC50, inhibition of FVIIa amidolytic activity in the absence of sTF turned out to be 105 nM and the inhibitory potency towards FVIIa relative to plasma kallikrein was > 50 times. Also, in the experiment with FVIIa (human) [3], the Ka is 411000 M⁻¹, the ΔG was -7.54, the ΔH is -7.93 and the ΔS is -1.25 cal/M. In addition, in the experiment with FVIIa-sTF (human) [4], the Ki (as a rule, a measure of affinity in units of concentration, obtained from inhibition or displacement) turned out to be 25 nM.

Values taken from patent publication US20090180995A1, “NOVEL ANTICOAGULANT POLYPEPTIDES AND COMPLEX” (National University of Singapore, priority 2005, published 2009).
